# Measurements: publication PMC9475553, “SHF Acts as a Novel Tumor Suppressor in Glioblastoma Multiforme by Disrupting STAT3 Dimerization” (Advanced Science, 2022)
# B1: C16 peptide (derived from the STAT3-binding sites of SHF) (peptide, UniProt Q7M4L6 388-421, looked up)
# peptide: PFSSVPEIVHHYASRKLPIKGAEHMSLLYPVAIR
# modifications: palmitic acid at the N-terminus; amidated C-terminus
# notes: '3× His tags' is not explained further (three histidines or three His tags); source: synthetic peptide (Genscript; solid-phase Fmoc synthesis, RP-HPLC, purity above 95%); not shown: 3× His tags, C-terminal, kept
# Molecular target: T1, recombinant STAT3 (immobilized, static adsorption assay) (UniProt P40763 1-770)
# T1 construct: STAT3, called 'recombinant STAT3' in the legend and 'immobilized STAT3 peptide' in the results; also called immobilized STAT3; STAT3 (powder)
# T1 sequence (P40763 whole entry): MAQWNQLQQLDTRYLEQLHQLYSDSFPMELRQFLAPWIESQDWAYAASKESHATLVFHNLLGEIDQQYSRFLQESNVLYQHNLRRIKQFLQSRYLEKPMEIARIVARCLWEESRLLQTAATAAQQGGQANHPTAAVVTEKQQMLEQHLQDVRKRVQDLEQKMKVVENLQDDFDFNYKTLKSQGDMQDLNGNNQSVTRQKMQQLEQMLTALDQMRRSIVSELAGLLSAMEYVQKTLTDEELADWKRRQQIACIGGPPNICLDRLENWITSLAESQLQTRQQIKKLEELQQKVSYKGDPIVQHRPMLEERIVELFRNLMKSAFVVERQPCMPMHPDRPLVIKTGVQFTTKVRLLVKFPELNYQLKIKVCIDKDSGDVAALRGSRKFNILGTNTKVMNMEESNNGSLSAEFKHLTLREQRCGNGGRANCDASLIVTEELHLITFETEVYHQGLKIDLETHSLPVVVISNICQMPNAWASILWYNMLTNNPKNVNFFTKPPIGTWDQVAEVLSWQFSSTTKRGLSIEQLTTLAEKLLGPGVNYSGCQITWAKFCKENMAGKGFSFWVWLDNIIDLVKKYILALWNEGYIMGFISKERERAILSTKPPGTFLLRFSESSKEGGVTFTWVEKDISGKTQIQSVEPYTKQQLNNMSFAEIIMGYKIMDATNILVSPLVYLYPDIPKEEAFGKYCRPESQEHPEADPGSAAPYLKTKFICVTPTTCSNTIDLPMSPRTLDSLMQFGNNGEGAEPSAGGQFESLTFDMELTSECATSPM
# Experiment: static adsorption equilibrium assay; immobilized STAT3 (85 nmol g^-1 wet gel) in 20 mL PBS with 2-20 µM C16 or scramble, stirred 12 h; free peptide by absorbance at 240 nm; Langmuir isotherm
# Settings: both partners purified
binder,measurement,value
B1,stoichiometry N,1
